Laboratory results taken from the DeepSol protein solubility set.

Assay: soluble on expression in E. coli; label from the status in PepcDB or PDB records

Sequence | soluble on expression in E. coli
MGSDKIHHHHHHMNSKYNFQYFQGSSLSDLFAQDITDGSYGFILNYPATASWAAYPNRKKYFIQDGSSEASKTSFDKICQKEPWKNLAVLGDRIPGIVIIPPPKPLLEYWQEHFGFKHSNIEMMDCSTYLDDLSHSDRFDKLITLFPFDCLKPEKHAVTSDTHYRLLSKVTLEEIGVQCPKYKSYNLHQVNIVDIQLPQFPYLIKTSHGLSGEGTYIIKNPSDLNYCLEEINKYLDIKLLDTIIVSEFIKNEVQNYCVQFYVNKAGEITLIGTTGQLVTPEGNYLGGVIDYGKTDMSKFFEMIANVGDYAHKQGYFGVIGFDVLENQDGQFYAIDANFRVNGSTPLCLQRHTLLRLGKEVAKYSSSYRMEGTLESILITLKPELDRKDLIILSALEKAKYGKIYTELYAIVTGETIAQMQYIEQQLQTKGLQLLS | not soluble
KSEKRMKLTLKGGAAVDPDSGLEHSAHVLEKGGKVFSATLGLVDIVKGTNSYYKLQLLEDDKENRYWIFRSWGRVGTVIGSNKLEQMPSKEDAIEHFMKLYEEKTGNAWHSKNFTKYPKKFYPLEI | soluble
MEGLFESLPEGYREKLGRPGEYPFTRGIYPRMYLERLWTMRQYAGFSTAEESNARYRYLLSQGQTGLSVAFDLPTQLGLDPDHPMSVGEVGRVGVSIATLEDMQKLFDGIPLDQVSTSMTINAPAMMLLALYLLVAEAQGVPWDKVSGTVQNDILKEYFARGTYIYPPGPSMRLVTDIFEFCAAHVPRWNTISISGYHIREAGSTAAQEIAFTLADAKAYVRAALERGLDVDRFAPRLSFFFAAHGDIFEEAAKFRAARRLWARIMREEFGAKDPKSWMLRFHTQTGGSTLTAQEPLNNVVRTAYQALAAVLGGTQSLHTNAYDEALGLPTEKSALLALRTQQILAYESGVTRAIDPLGGSFYVEHLTDKLEREAEQILREIDALGGAVAAVEAGYFQRALEESAWQFQKEVEEGKRVIVGVNRFFDPNSPLNEPVPVQRIDPELHERRKRELAAFKANRDGESVRVGLERLREAARGEENLFPYVLEAFRRRATLGEVCGVLREEWGEYQPPR | soluble
MNNHIEALSYYLGAFVDELTLLNVCDVVISPGSRSTPIALLMEQHEGMNTYLHVDERSAGFFALGIAKAKKRPVALLCTSGTAAANYYPAVCEAFHSRVPLIVLTADRPHELRDVGAPQAMNQINLYGTFVKQFTEMALPEASEAMYHYARLTTQRMIASACLAPQGPVHLNFPVREPLIPDFSLESLWDKGRGEYTGVVQQGNAVMPSEYVDSLVGRLSHMEKGLIICGDDSHSEIAAFATQLAEKTGYPILADPLSNIRSGHHDKTMVIDCYDTFLRNELLKETWKPDVLIRFGGMPVSKALTQFIKKQTKAVHIVVDESGQWRDPALVATEVVQASDIAFCSALIEKMPVMKKNDWFRMWQHINEKTKETLREMETYDTAFEGRVITDIVRVLPEGATLFASNSMPIRDTDSFFFTSDKNIQVMANRGVNGIDGIISTALGASMICDPLVLVIGDLSFYHDLNGLLAAKLHELNITIVVVNNDGGGIFSFLPQYEKKEHFESLFGTPIGLDYEHVVTMYGGSFSRVNGWEQFREEVQKGVTTEGLHVVEICTNRDENLTLHRTLWAKTQDVITTSLQGESK | soluble
MGHHHHHHGGHMSLEIVKEVERLIREGKILDAFELVKQSAPEELRERIEKSFRDAEEIKKLDGIWKKLMLILHFVYASQDAVERQDKQSLVSCVVSSVNAIKLTIELGMKSITPVLMRNAARALILMDMKENAERMYTEAEKICEENRDEEMLAAIENDLATLYYDMGKYNEAKVKAEEALEIRRKIGTKEELAESLATASEIYVKLGDFDEAEECYREAEKLYRELVEEAESFKLNLAILLSNYAMFRKKLGRYQEAEKMFKEALEIFQNLERIDADFMQFVAAAYRHLGDLYREMKEYSKAEEYYKLSREKFRDIQKRWESVASEGGS | soluble
MSLKDQDIFELIEPSTDINDIIMPENTKELLENILKQQDKKVLERLHSWGIKSNKNIEAKIIFYGPAGTGKTMSALAMAKSMKKSVLSFDCSKILSKWVGESEQNVRKIFDTYKNIVQTCKQSPILLLNEADQFLSTRVDGSSGSDKMHNQMQNIFLEQIERFSGVIIATTNFLESLDSAFSRRFDYKIEFKKPDFKDRLKIWEKFLPKKALFEKDFDINILSNYELSGAQILMVVKNTALKVAVSKDGVFKIQDFIESIQKELNSSFDKSKIVGFEGHHHHHH | soluble
MTIWLVTRHPGAIEWVARQGIQWDKHAAHLDPCEITAGDTVIGSLPINLAAEICNRGARYFNLSLNLPAHLRGRELDAATLTACEARLEEYIVKKVNS | not soluble
MSKMLYRVELIITNKEGVRDPEGETIQRYVVSRFSDKIIETRAGKYLVFRVNSSSQQEATELVKKLADEMRLYNPIVHKIEIRANRIEDSSN | soluble
MGSDKIHHHHHHMTLNIDQESCIKCGKCVRVCPSDIFTQERAGETIGLVRVESCIVCGHCVDVCPTGSVSHSEFPPEKTHTIDYSQMPTPEQVMLLIKSRRSNRTLTSRPVPKEMLDKIVEAAHSAPTATNSQSLSFTVVTDPRKLRQVSDYTIGVFDSLAKLLLNPVVKCVVKPFMKDVYKYVPVFNRLKEEHKAGKDPILRKATALLLIHTPKSNRFGSEDANLAYQNASLMAQSLGVSQIYMGFVLTAIRQEGKDTLAKTLGIDGKIQAIMALGIPAFKYPKYTDRKEIVKNYIE | not soluble
MLPAWGTSTEATASHAGWDGDDEGDIRAAYTEDEKKENIPPISLTSVSTNGAYPGQKRRRSESVRTLKPECPPEETQRLRQRRRISATDATQSSRTMNVIEDRKPRVNRARKSQDAPSTSTCGFETPVGTKRKSKAADSQKPPKQSKLRKIDEASTSKAVDNSSKDGKKTTKPAVTQSNRRRSGLSLRPVPIETIFSESSGRESSTEDEADVSHQQ | not soluble
MAHHHHHHMVDDILKCIHNEFKYVLISCDINNEIKELTFKGSEEKFQNTLGSYFRRIIFDEKGKDELKESIKEKLKTNDKNDEDKEKVNTISPDIINNAIESSQTYQIIPLTIPNEKNDFLGINCYIDDIGRIKKLPYNSRASRICSTEIYGDAFLSKTYDNEDFKRCDFTISEYDEFLKNPPKSENRWDQAQAMQNLLKQMKGQNDAGVNDEAPTEKVNACEHCYKEQNLKRCGRCKKVYYCSVECQKSDYVFHKRICS | soluble
TSDQRKAEEHIEKEAKYLASLLDAGNLNNQANEKIIKDAGGALDVSASVIDTDGKVLYGSNGRSADSQKVQALVSGHEGILSTTDNKLYYGLSLRSEGEKTGYVLLSASEKSDGLKG | not soluble
MVKGPGLYTEIGKKARDLLYKDHNSDQKFSITTFSPAGVAITSTGTKKGDLLLGDVAFQSRRKNITTDLKVCTDSTFLITATVDEAAPGLRSIFSFKVPDQNSGKVELQYLHEYAGISTSMGLTQNPTVNFSGVIGSNVLAVGTDVSFDTKSGNFTKINAGLSFTKEDLIASLTVNDKGDLLNASYYHIVNPLFNTAVGAEVSHKLSSKDSTITVGTQHSLDPLTSVKARVNSAGIASALIQHEWKPKSFFTISGEVDTKSIDKSAKVGLALALKP | soluble
MMTRESIDKRAGRRGPNLNIVLTCPECKVYPPKIVERFSEGDVVCALCGLVLSDKLVDTRSEWRTFSNDDHNGDDPSRVGEASNPLLDGNNLSTRIGKGETTDMRFTKELNKAQGKNVMDKKDNEVQAAFAKITMLCDAAELPKIVKDCAKEAYKLCHDEKTLKGKSMESIMAASILIGCRRAEVARTFKEIQSLIHVKTKEFGKTLNIMKNILRGKSEDGFLKIDTDNMSGAQNLTYIPRFCSHLGLPMQVTTSAEYTAKKCKEIKEIAGKSPITIAVVSIYLNILLFQIPITAAKVGQTLQVTEGTIKSGYKILYEHRDKLVDPQLIANGVVSLDNLPGVEKK | soluble
MKLSCVIVSHNMKNYIGRCIDSVRTALADIRSLVGEAEIIVVDRGSTDGTANAARTAYADVTIVDVPFDAGWATAANKGACAATGETLLFVSPEVELLSGGLPRLLEHLETNPACAIAGGAVVSTSGALLHGPARFPGLLGKLAALTGLGSRFPRTMLDWTRYGGRNLDLPLEVDSVSFDYAVVKAAAFCKLGRFDARFHTAFADTDLCRRASRTMLPRPTVAFVPQARARAQDNFVLRDEVQAFDLHGTAVVRGRVRCEMLYVWKNYCILTSLANTTLELVGQACRYAMGLLPVIGCDKTARHSAAVLKETAQAALDTQLGSQYPTTPWLEHHHHHH | not soluble
MAHHHHHHMDLFSIASNLQQIAIGGVNFVNSKLRKKSATAECNYITYIVIGENEKQPYDTNIFFLPFKICGKIKLEEFKEFFPFKDNVIFRFKIPVSDLIDVINEGIVNHAPLMREDSNERNQVKHIISDENEIKNILRQDQFSHLWVDITSEEAYIPFYNGNIVVKVLFI | not soluble
MSLDFSIPEEYMMLKESMREFVKRELMPLEKTLLERELSLWTEPGHLIPDEDHKRLMQKTKELGFWGLEVDEEFGGQGLGMLAKTLVVEELSKSLVGFSNHGFTLPPDAPNLYYLHECCGPRQREKYFVPYCNGDVDSAMACTEPGAGSDVSGLKTKAVKKGDKWVINGTKSFISKCDYDNVFFIVIAVTDPSASTKDRFTAFLIDREHPGVRIGKEIPVIGPMPTWDLILEDVEVDDDAILGDVGKAFIPLQNRFGVRRIELASSCTGMAERLIQMMIDQANTRITFGQPLAERGTIQNWIADSTMELEQVRWLLYYAAWKSDQGHKDLRIEGASVKVAATEMLTRVADRAIQIHGGLGVSHELGIEYVARHVRLWRIVEGPSEVHRWLVARQLLKEGHHHHHH | not soluble
MGSDKIHHHHHHMAVTLYSSIATPHNKNTHHYFTRRTFLPDQQNSLWKIEAGFVRTFTYLENGTTVALGLWGPGDILGRALSKLEPYQMECLTKVEATIVPIEEWKNPTDTLLAHIQQAEELMVIRSYKKVDTMLIKLLAWLSKKFGSEVDKGRLIDMRLTHEDLAEMLGSTRVTITRILGQFEEEGLINRLSLHRIVLKEEDIWYYEI | not soluble
SGKCYLSLHEHNSSANRGACAQICRRGYTVKDKDSGLELDIENQYIMSPKDLKTIHFINKMMDAGVRVFKIEGRARGPEYVYTVCRCYKEAIEAYCNGTYDEESIGRWDEQLATVFNRGFWDGYYLGQRLGEWTHRYGSGATRQKIYVGKGIKYFSRLGVAEFEIESGELHIGDEIVITGPTTGVIIQKVEEIRYELQTVEKATKGQRISIPVKEKVRPSDKLYRFDKRE | not soluble
MGSDKIHHHHHHMKDGQMLTEWPSHLPWLNQSQNDFTFPSDTYLLLYFWSMSCPNCHQFTDKVLQDIKDMNVKVIGVHVPYIEEEKSMEVVLTYALDRGLAIPIVLDQNYEIVTTCHVQGIPSFCLLSQYGQIITKTMGDVSWDKMLKKIAGL | not soluble
LEGTAGTITSNEWSSPTSPEGSTASGGSQALDKPIDNDAEGVWSPDIEQSFQEALAIYPPCGRRKIILSDEGKMYGRNELIARYIKLRTGKTRTRKQVSSHIQVLARRKAREIQAKLKDQAAKDKALQSMAAMSSAQIISATAFHSSMALARGPGRPAVSGFWQGALPGQAGTSHDVKPFSQQTYAVQPPLPLPGFESPAGPAPSPSAPPAPPWQGRSVASSKLWMLEFSAFLEQQQDPDTYNKHLFVHIGQSSPSYSDPYLEAVDIRQIYDKFPEKKGGLKDLFERGPSNAFFLVKFWADLNTNIEDEGSSFYGVSSQYESPENMIITCSTKVCSFGKQVVEKVETEYARYENGHYSYRIHRSPLCEYMINFIHKLKHLPEKYMMNSVLENFTILQVVTNRDTQETLLCIAYVFEVSASEHGAQHHIYRLVKE | soluble
MGSDKIHHHHHHMKNLLDLTGKLNIYSPKFNRYQTSLMKIDMHRTKLEQKQPHFDAQKRRKKECKNSNTPFVRPKLELPHGHNKLLLHSCCAPCSGEVMEAIHASGIDFTIYFYNPNIHPLKEYLIRKEENIRFAEKWGIPFIDADYDRQNWFDRAKGMEDEPERGIRCTMCFDMRFEKAAQYAHENGFPVFTSCLGISRWKDMNQINGCGHRAAEKYDDVVYWDYNWRKGGGSQRMIEISKRERFYQQEYCGCVYSLRDTNKWREANGRQKIEIGKLYYSADK | not soluble
